Data published in US20250002610A1 (Genmab, published 2025).

T1: human FAPα (Fibroblast activation protein alpha), cell surface expressed (human, UniProt Q12884 1-760)
T1 construct: Endogenous on human lung fibroblasts and CAFs
T1 sequence: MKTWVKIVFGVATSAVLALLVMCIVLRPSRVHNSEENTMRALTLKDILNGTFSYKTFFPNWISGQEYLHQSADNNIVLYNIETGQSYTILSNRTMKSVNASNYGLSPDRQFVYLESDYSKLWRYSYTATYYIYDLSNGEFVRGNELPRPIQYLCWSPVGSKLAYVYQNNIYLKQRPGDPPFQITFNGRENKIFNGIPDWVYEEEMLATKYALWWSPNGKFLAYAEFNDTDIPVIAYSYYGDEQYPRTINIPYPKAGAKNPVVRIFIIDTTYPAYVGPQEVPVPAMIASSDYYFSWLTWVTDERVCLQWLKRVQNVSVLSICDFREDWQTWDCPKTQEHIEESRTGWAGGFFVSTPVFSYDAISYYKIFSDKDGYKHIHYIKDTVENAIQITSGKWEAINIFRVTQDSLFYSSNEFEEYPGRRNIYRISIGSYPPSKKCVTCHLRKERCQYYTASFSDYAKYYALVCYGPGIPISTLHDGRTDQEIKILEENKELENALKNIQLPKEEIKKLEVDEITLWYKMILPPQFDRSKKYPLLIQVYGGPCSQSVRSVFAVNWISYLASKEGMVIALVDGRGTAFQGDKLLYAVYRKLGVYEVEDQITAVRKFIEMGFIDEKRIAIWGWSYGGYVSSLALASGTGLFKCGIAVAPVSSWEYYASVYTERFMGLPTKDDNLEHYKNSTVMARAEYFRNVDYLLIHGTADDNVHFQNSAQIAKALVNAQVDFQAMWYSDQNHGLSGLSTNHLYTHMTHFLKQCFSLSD


Experiments:
[1] = target: T1, human FAPα (Fibroblast activation …); assay: flow cytometry, Expi293F cells expressing human FAPα, n = 3
Description: Binding of BisG1-FAPα-FERL/DR4-FERR, BisG1-FAPα-FEAL/b12-FEAR and IgG1-FAPα-FERL to FAPα of species commonly used for nonclinical toxicology studies was assessed by flow cytometry using Expi293F cells transiently expressing FAPα from different animal species. IgG1-b12 was included as negative control.
Expi293F cells expressing recombinant FAPα from various species (human, cynomolgus monkey, dog, pig, rat or mouse) were seeded (20,000 cells/well) in 96-Well round bottom plates (Greiner Bio-one, Cat #650101). Antibody dilutions were prepared using FACS buffer, consisting of PBS (Capricorn Scientific, Cat #PBS-10XA, diluted to 1×PBS in distilled water)+1% BSA (Roche, Cat #10735086001)+0.02% Sodium Azide (Bio-World, Cat #41920044-3). Plates were centrifuged, supernatant was removed, and cells were resuspended in 100 μL of antibody dilutions (concentration range 30-0.00017 μg/mL with three-fold serial dilutions using FACS buffer) of BisG1-FAPα-FERL/DR4-FERR, BisG1-FAPα-FEAL/b12-FEAR, IgG1-FAPα-FERL and IgG1-b12 and incubated for 30 min at 4° C. […] After 30 min incubation at 4° C., cells were washed with FACS buffer and resuspended in FACS buffer supplemented with TO-PRO-3 Iodide viability marker (Invitrogen, Cat #T3605, diluted 1:4,000). Antibody binding to viable cells (gMFI of PE on TO-PRO-3 negative cells) was analyzed by flow cytometry on a FACS Celesta and FACS_Diva software (first two experiments) or iQue® 3 and FlowJo software (last experiment). gMFI was determined and visualized using GraphPad Prism. Binding curves were analyzed using nonlinear regression analysis. The concentration (pg/mL) at which 50% of the maximal effect was observed (EC₅₀) was derived from the fitted curves.

[2] = target: T1, human FAPα (Fibroblast activation …); assay: flow cytometry, human lung fibroblasts, average ± SEM
Description: Binding of bispecific or monoclonal antibodies carrying the anti-FAPα arm derived from IgG1-FAPα-FERL (BisG1-FAPα-FERL/DR4-FERR, BisG1-FAPα-FERL/b12-FERR, and IgG1-FAPα-FERL) to cell surface expressed human FAPα was analyzed by flow cytometry using human lung fibroblasts and CAFs, which endogenously express FAPα. BisG1-b12-FERL/b12-FERR was used as negative control.
Human lung fibroblasts and CAFs (50,000 cells/well) were seeded in 96-Well round bottom plates (Greiner Bio-one, Cat #650101). Antibody dilutions were prepared using fluorescence-activated cell sorting (FACS) buffer, consisting of phosphate buffer saline (PBS, Lonza, Cat #BE17-517Q)+1% Bovine Serum Albumin (BSA, Roche, Cat #10735086001)+0.02% Sodium Azide (Bio-World, Cat #41920044-3). Plates were centrifuged, supernatant was removed, cells were resuspended in 50 μL of human Fc Block (BD, Cat #564220, diluted 1:100 in FACS buffer) and 50 μL of viability stain TO-PRO-3 Iodide (Thermo Fisher, Cat #T3605, diluted 1: 25,000 in FACS buffer), and incubated for 15 min at 4° C. Plates were washed three times with FACS buffer. Plates were centrifuged, supernatant was removed, cells were resuspended in 50 μL of antibody dilutions (concentration range 90-0.0005 μg/mL, three-fold dilution steps using FACS buffer) of BisG1-FAPα-FERL/DR4-FERR, BisG1-FAPα-FERL/b12-FERR, BisG1-b12-FERL/b12-FERR (top six concentrations only for CAFs culture) or IgG1-FAPα-FERL (top four concentrations only for CAFs culture) and incubated for 30 min at 4° C. Cells were washed three times with FACS buffer and resuspended in 50 μL of Fluorescein isothiocyanate (FITC)-labeled polyclonal antibody goat anti-mouse IgG1 (Jackson Immuno Research, Cat #109-096-097, diluted 1:100 in FACS buffer). […] Antibody binding to viable cells (TO-PRO-3 negative) was analyzed by flow cytometry on a FACSCelesta™ (BD biosciences) and data were processed using FlowJo_v10.8.1 (FlowJo LLC). Geomean fluorescence intensity, gMFI, was determined and visualized using GraphPad Prism.

Binder	EC50 [1]	EC50 [2]
BisG1-FAPα-FERL/DR4-FERR (bispecific antibody, human IgG1, kappa, lambda, Human IgG1 bispecific made by controlled Fab-arm exchange of IgG1-FAPα-FERL and IgG1-DR4-FERR; monovalent for FAPα and for DR4; also called GEN1057) heavy 1: EVQLLESGGGLVQPGGSPRLSCEASGFTFSSYALSWVRQAPGKGLEWVSAISGSGGGRYYADSVKGRFTISRDNSKNTLFLQMNSLRAEDTAVYYCAKEGYSSSGTYWDHWGQGTLVTVSSASTKGPSVFPLAPSSKSTSGGTAALGCLVKDYFPEPVTVSWNSGALTSGVHTFPAVLQSSGLYSLSSVVTVPSSSLGTQTYICNVNHKPSNTKVDKRVEPKSCDKTHTCPPCPAPEFERGPSVFLFPPKPKDTLMISRTPEVTCVVVDVSHEDPEVKFNWYVDGVEVHNAKTKPREEQYNSTYRVVSVLTVLHQDWLNGKEYKCKVSNKALPAPIEKTISKAKGQPREPQVYTLPPSREEMTKNQVSLTCLVKGFYPSDIAVEWESNGQPENNYKTTPPVLDSDGSFLLYSKLTVDKSRWQQGNVFSCSVMHEALHNHYTQKSLSLSPG light 1: AIQMTQSPSSVSASVGDRVTITCRASQGVSSWLAWYQQKPGRAPKLLIYVASTLQSGVPSRFSGSGSGTDFTLTINSLQPEDFATYYCQQANSFPPTFGQGTRLEMKRTVAAPSVFIFPPSDEQLKSGTASVVCLLNNFYPREAKVQWKVDNALQSGNSQESVTEQDSKDSTYSLSSTLTLSKADYEKHKVYACEVTHQGLSSPVTKSFNRGEC heavy 2: QVQLQESGPGLVKPSGTLSLTCAVSGGSISSYSWWSWIRQPPGKGLEWIGELYHSGSTNYNPSLKSRVTISVDKSKNQFSLKLRSVTAADTAVYYCVRGVATIDYWGQGTLVTVSSASTKGPSVFPLAPSSKSTSGGTAALGCLVKDYFPEPVTVSWNSGALTSGVHTFPAVLQSSGLYSLSSVVTVPSSSLGTQTYICNVNHKPSNTKVDKRVEPKSCDKTHTCPPCPAPEFERGPSVFLFPPKPKDTLMISRTPEVTCVVVDVSHEDPEVKFNWYVDGVEVHNAKTKPREEQYNSTYRVVSVLTVLHQDWLNGKEYKCKVSNKALPAPIEKTISKAKGQPREPQVYTLPPSREEMTKNQVSLTCLVKGFYPSDIAVEWESNGQPENNYKTTPPVLDSDGSFFLYSRLTVDKSRWQQGNVFSCSVMHEALHNHYTQKSLSLSPG light 2: QSALTQPPSASGSPGQSVTISCTGTSSDVGGYNFVSWYQQDPGKAPKLLIYEVTKRPSGVPDRFSGSKSGNTASLTVSGLQAEDEADYYCSSYAGSNNVMFGGGTKLTVLGQPKAAPSVTLFPPSSEELQANKATLVCLISDFYPGAVTVAWKADSSPVKAGVETTTPSKQSNNKYAASSYLSLTPEQWKSHRSYSCQVTHEGSTVEKTVAPTECS	0.23 µg/mL	0.051 µg/mL
IgG1-FAPα-FERL (antibody, Bivalent monoclonal IgG1 kappa) heavy: EVQLLESGGGLVQPGGSPRLSCEASGFTFSSYALSWVRQAPGKGLEWVSAISGSGGGRYYADSVKGRFTISRDNSKNTLFLQMNSLRAEDTAVYYCAKEGYSSSGTYWDHWGQGTLVTVSSASTKGPSVFPLAPSSKSTSGGTAALGCLVKDYFPEPVTVSWNSGALTSGVHTFPAVLQSSGLYSLSSVVTVPSSSLGTQTYICNVNHKPSNTKVDKRVEPKSCDKTHTCPPCPAPEFERGPSVFLFPPKPKDTLMISRTPEVTCVVVDVSHEDPEVKFNWYVDGVEVHNAKTKPREEQYNSTYRVVSVLTVLHQDWLNGKEYKCKVSNKALPAPIEKTISKAKGQPREPQVYTLPPSREEMTKNQVSLTCLVKGFYPSDIAVEWESNGQPENNYKTTPPVLDSDGSFLLYSKLTVDKSRWQQGNVFSCSVMHEALHNHYTQKSLSLSPG light: AIQMTQSPSSVSASVGDRVTITCRASQGVSSWLAWYQQKPGRAPKLLIYVASTLQSGVPSRFSGSGSGTDFTLTINSLQPEDFATYYCQQANSFPPTFGQGTRLEMKRTVAAPSVFIFPPSDEQLKSGTASVVCLLNNFYPREAKVQWKVDNALQSGNSQESVTEQDSKDSTYSLSSTLTLSKADYEKHKVYACEVTHQGLSSPVTKSFNRGEC	0.32 µg/mL	0.015 µg/mL
